Test results published in the supplement of paper PMC9170038.

What follows are sequences tested on MS2 coat protein (assay: apparent KD of MS2 coat protein; higher = weaker reporter binding). Conditions: Eterna round: R107; input ligand: arginine 13.2 mM.
Summary of the method: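 Binding of SNAP-549-labelled MS2 coat protein was measured on designed RNA switches transcribed on-chip from Illumina sequencing clusters. The protein rose in twofold steps from 0.7 or 1.5 nM to 3 µM, with 0.8–1.5 h per step early on and 10–20 min per step later, in 100 mM Tris-HCl pH 7.5, 80 mM KCl, 4 mM MgCl2, without or with constant ligand. Each design's apparent KD is the median of fits to its normalised cluster binding curves.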

Row | Sequence | apparent KD of MS2 coat protein [nM]
1 | GUUGGACUUUCGGCCGCCACUGAGAGAGUCAUGUGAACAUGAGGAUCACCCAUGUAAUAUAUAUACAGGACCGGGAGGGUUGUAA [4.M] | 11.7
2 | UGGGUACAUGAGGAUCACCCAUGUACUGAAGGAGCGGGACGAAUCUCAGGUAGGUCGCAGACAUGAGGAUCACCCAUGUAGUGGA [Exclusion Arginine A GF 15] | 13.9

Same assay, conditions: Eterna round: R107; input ligand: none

Row | Sequence | apparent KD of MS2 coat protein [nM]
3 | UGCCCUGCGAGCGCUCGCAGGGCAGCGGAUACCAGCGAGGUCCAUCGCCCUUGGCAGCCGAACAUGAGGAUCACCCAUGUCGGUG [Same State - Theophylline A Attempt #9 (HarryS)] | 14.1
4 | GUCCUAGCGAGCGCUCGCUAGGACGCGGAUACCAGCGAGGUCCAUCGCCCUUGGCAGCCGAACAUGAGGAUCACCCAUGUCGGUA [#1 Same State - Theophylline A Attempt #16 (HarryS)] | 11.6
5 | GGUUGGUGUGGAGACAUAUUGAUCACUGAAGGAGCGGGAAUAAACCCAGGUAGGUCGCAGAGAUCCACAUGAGGAUCACCCAUGU [!0.Q] | 40.2
6 | ACACAUGAGGAUCACCCAUGUGCGCUGGAAGGAGCGCAGAAUCAUGCAGGUAGGUCGCCAGUGCCCUUCGAUAAAGGGAAAAGAG [Erbienes] | 97.4
7 | GGUCUCUGGAGCGAUACCAGCUUAAAUGUACUGGCCAGGUACAUGAGGAUCACCCAUGUAAGCCCUUGGCAGCGCUCCAGAGACC [#1 Exclusion - Theophylline B Attempt #13 (HarryS)] | 13.9
8 | ACAUGAGACAUGGAUACCAGCGACAUGAGGAUCACCCAUGUAUGAGGAUCACCCAUGUUAUGCCCUUGGCAGCCACAAACAUGAG [.PLMULLINP] | 13.9
9 | GGGCGCGUGGACCGGCGUGCUCCGCUCCGUCGAGGACCGGUACGGCCGCCACUCGACAUGAGGAUCACCCAUGUGCGAGCUCGCG [#1 Exclusion - Tryptophan A Attempt #15 (HarryS)] | 19.3
10 | GGAUAGGACAGAAGGAGCGUGAGAUGCAUACCUUCAUUCCUCACAUGAGGAUCACCCAUGUCACAGGUAGGUCGCUGUCCUAUCG [#20 Exclusion - Arginine B] | 93.5
11 | CUGACGGACUCGGCCGCCACUGAUAGUAGGACAUGAGGAUCACCCAUGUAAACGAACCUCAUAGCCAGGACCGGGAGUCACGAAG [Same State Tryptophan B GF 22] | 204
12 | AAUAAUAUGAGGAUCACCCAUAUAAAAGAUACCAGAGUGAUGAUCCUCCCUUGGCAGCUUAACGCUGAUUGAUUACAAUCAGCGA | 47.5
13 | AUUAUAGUUUAUAACGAAGUUGAUACAGAAGGAGCGUGAAUAAUCACAGGUAGGUCGCUGAUAAUACAUGAGGAUCACCCAUGUU [JR_Nu_SSArginiA_Sub018] | 20.4
14 | GUCUGUGACUGAAGGAGCGACAUGAGGAUCACCCAUGUCUCCCGUUAUGGGAGUUCCUUAGGUCAGGUAGGUCGCAGUCACAGAC [#1 Exclusion - Arginine B Attempt #28 (Inspired by Omei)] | 112
15 | CGGUAACCACAUGAGGAUCACCCAUGUGAAGGAGCGGCGAAUAAGCCAGGUAGGUCGCGCAUGAAUAAAUCAUGUUGGUGCCGAA [XArg-A 16 NuPack] | 45.7
16 | UGGGUACAUGAGGAUCACCCAUGUACUGAAGGAGCGGGACGAAUCUCAGGUAGGUCGCAGACAUGAGGAUCACCCAUGUAGUGGA [Exclusion Arginine A GF 15] | 15.9

Same assay, conditions: Eterna round: R107; input ligand: theophylline 20 uM

Row | Sequence | apparent KD of MS2 coat protein [nM]
17 | AUUUACAUGGUCAUAUAUAUAUCGUCAGAUACCAGACGAGAUAUUGUCCCUUGGCAGCUGUUACAUGAGGAUCACCCAUGUAAUU [JR_Nu_ExcTheophyA_Sub021] | 56.4
18 | UGCCCUGCGAGCGCUCGCAGGGCAGCGGAUACCAGCGAGGUCCAUCGCCCUUGGCAGCCGAACAUGAGGAUCACCCAUGUCGGUG [Same State - Theophylline A Attempt #9 (HarryS)] | 18.9
19 | AGCAUGUUAUCAGAUACCAGACAUCUUUUAAAACAUAUUACAUGAGGAUCACCCAUGUUGGUCCCUUGGCAGCUGAAAUAUUUCA [JR_Nu_SSTheophyB_Sub024] | 223
20 | GUCCUAGCGAGCGCUCGCUAGGACGCGGAUACCAGCGAGGUCCAUCGCCCUUGGCAGCCGAACAUGAGGAUCACCCAUGUCGGUA [#1 Same State - Theophylline A Attempt #16 (HarryS)] | 13.2
21 | ACGGAGAUUGCUAAAUGUUGGCGAGCGGAUACCAGCCUAUUAUUGGGCCCUUGGCAGCCGACAUGAGGAUCACCCAUGUAAACAA [Berere] | 90.8
22 | GGUUGGUGUGGAGACAUAUUGAUCACUGAAGGAGCGGGAAUAAACCCAGGUAGGUCGCAGAGAUCCACAUGAGGAUCACCCAUGU [!0.Q] | 68.9
23 | UUUAUGGAGCUUUUAUUUACGAUUUCUGAUACCAGUGUUUCAUUUCACCCUUGGCAGCAGUGACAUGAGGAUCACCCAUGUAAUA [JR_Nu_SSTheophyA_Sub020] | 35.1
24 | CGGUACAUGAGGAUCACCCAUGUGUCGGAUACCAGAGAGCCGUCUCUCCCUUGGCAGCUGGUUUUACAUGAGGAUCACCCAUGUG [Exclusion Theophylline A GF20] | 15.2
25 | ACACAUGAGGAUCACCCAUGUGCGCUGGAAGGAGCGCAGAAUCAUGCAGGUAGGUCGCCAGUGCCCUUCGAUAAAGGGAAAAGAG [Erbienes] | 72
26 | GGUCUCUGGAGCGAUACCAGCUUAAAUGUACUGGCCAGGUACAUGAGGAUCACCCAUGUAAGCCCUUGGCAGCGCUCCAGAGACC [#1 Exclusion - Theophylline B Attempt #13 (HarryS)] | 13.8
27 | ACAUGAGACAUGGAUACCAGCGACAUGAGGAUCACCCAUGUAUGAGGAUCACCCAUGUUAUGCCCUUGGCAGCCACAAACAUGAG [.PLMULLINP] | 30.8
28 | GAUGAACUAUUUGAUACCAGACUACAUGAGGAUCACCCAUGUGAGUUUCCUCCUCUGCCAGUCCCUUGGCAGCAAAUAGUUUAUC [XTheo B #7] | 96.9
29 | GGGCGCGUGGACCGGCGUGCUCCGCUCCGUCGAGGACCGGUACGGCCGCCACUCGACAUGAGGAUCACCCAUGUGCGAGCUCGCG [#1 Exclusion - Tryptophan A Attempt #15 (HarryS)] | 39.8
30 | GGAUAGGACAGAAGGAGCGUGAGAUGCAUACCUUCAUUCCUCACAUGAGGAUCACCCAUGUCACAGGUAGGUCGCUGUCCUAUCG [#20 Exclusion - Arginine B] | 108
31 | UACAUGAGGAUCACCCAUGUCCCAUGUGAACGAGGACCGGUACGGCCGCCACUCGACCGAGGCGGCACAUGAGGAUCACCCGCAU [whbob_SS_trypto A_2s15] | 917
32 | GGAAUAAUGGCGGCCGCCACUAACUCAUAUACAUCAUGUACAUGAGGAUCACCCAUGUAGGUGUAUAGGACCGGGCCAUAAUUCC [39MS split4] | 27.3
33 | UGGUACAUGAGGAUCACCCAUGUCCUCAUCCGAGGACCGGUACGGCCGCCACUCGAAAUUGCGAUCGGCACAAAACAAAUGCUUG [theeternabot_sameState_MS2_Trp_A_39] | 205
34 | AGAGCAUUGACGGCCGCCACUUAUGUCACAUGAGGAUCACCCAUGUGAUGGGUGAUAGCCCGGUUGAGGACCGGGUCAAUGCUCA [Omei Tryp SS B v6] | 18.5
